In the supplement of paper PMC9233669 one finds self-aminoacylation data, which are given here for 25 sequences.

This sample holds only a part of the variants without activity.

The test system of one data set is biotinyl-Phe-oxazolone. Kind of data set: self-aminoacylation, catalytic enhancement (BFO) (fold over background); higher = more active; k-Seq, kA / k0A0; sequences stand for … in GGGAAUGGAUCCACAUCUACGAAUUC…UUCACUGCAGACUUGACGAAGCUG
In a few lines: (§1)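 Catalytic enhancement equals the median kA over the uncatalyzed rate, the latter read from the low-activity peak of a bimodal Gaussian fit. Values of kA came from fitting each sequence's fraction reacted to a pseudo-first-order model, with 1000 bootstraps. Reacted RNA was captured with streptavidin and quantified by triplicate qPCR and Illumina sequencing after 90 minutes at room temperature with 2–1250 μM biotinyl-aminoacyl-oxazolone and 0.43 μM mutagenized RNA pools bearing a 21-nt variable region.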

The subject of a further data set is biotinyl-Ile-oxazolone. The data set is described as follows: self-aminoacylation, catalytic enhancement (BIO) (fold over background); higher = more active; k-Seq, kA / k0A0; sequences stand for … in GGGAAUGGAUCCACAUCUACGAAUUC…UUCACUGCAGACUUGACGAAGCUG
In a few lines: as §1

The next data set deals with biotinyl-Val-oxazolone. Kind of data set: self-aminoacylation, catalytic enhancement (BVO) (fold over background); higher = more active; k-Seq, kA / k0A0; sequences stand for … in GGGAAUGGAUCCACAUCUACGAAUUC…UUCACUGCAGACUUGACGAAGCUG
In a few lines: as §1

A further data set deals with biotinyl-Trp-oxazolone. The data set is described as follows: self-aminoacylation, catalytic enhancement (BWO) (fold over background); higher = more active; k-Seq, kA / k0A0; sequences stand for … in GGGAAUGGAUCCACAUCUACGAAUUC…UUCACUGCAGACUUGACGAAGCUG
In a few lines:
as §1

The next data set has as its system biotinyl-Met-oxazolone. The data set is described as follows: self-aminoacylation, catalytic enhancement (BMO) (fold over background); higher = more active; k-Seq, kA / k0A0; sequences stand for … in GGGAAUGGAUCCACAUCUACGAAUUC…UUCACUGCAGACUUGACGAAGCUG
In a few lines:
as §1

The next data set concerns biotinyl-Leu-oxazolone. Kind of data set: self-aminoacylation, catalytic enhancement (BLO) (fold over background); higher = more active; k-Seq, kA / k0A0; sequences stand for … in GGGAAUGGAUCCACAUCUACGAAUUC…UUCACUGCAGACUUGACGAAGCUG
In outline:
as §1

On to “CCACUUCAAACAAUCGGUCAG [Fam1A.1 aminoacylation ribozyme variant]”, for which the self-aminoacylation turned out to be 13.7 in the data set on biotinyl-Phe-oxazolone; 1.01 in the data set on biotinyl-Ile-oxazolone; 1.04 in the data set with biotinyl-Val-oxazolone; 9.79 in the data set with biotinyl-Trp-oxazolone; 0.992 in the data set with biotinyl-Met-oxazolone; 1.03 with biotinyl-Leu-oxazolone.
On to “CCACUUCAAACAAUCGGUCUA [Fam1A.1 aminoacylation ribozyme variant]”, for which the self-aminoacylation was 28.5 in the data set on biotinyl-Phe-oxazolone; 1.19 with biotinyl-Ile-oxazolone; 0.99 in the data set with biotinyl-Val-oxazolone; 17.4 in the data set with biotinyl-Trp-oxazolone; 0.991 with biotinyl-Met-oxazolone; 1.5 in the data set on biotinyl-Leu-oxazolone.
Turning to “CCACUUCAAACAAUCGGUUUG [Fam1A.1 aminoacylation ribozyme variant]”, the self-aminoacylation in the data set with biotinyl-Phe-oxazolone amounted to 80.3; with biotinyl-Ile-oxazolone, 1.39; in the data set on biotinyl-Val-oxazolone, 1.83; in the data set with biotinyl-Trp-oxazolone it was 39.5; with biotinyl-Met-oxazolone, 1.37; with biotinyl-Leu-oxazolone, 2.57.
As for “CCACUUCAAACUAUCGGUCUG [Fam1A.1 aminoacylation ribozyme variant]”, the self-aminoacylation was 0.866 with biotinyl-Phe-oxazolone; 1.44 with biotinyl-Ile-oxazolone; 1.46 with biotinyl-Val-oxazolone; 1.39 in the data set on biotinyl-Trp-oxazolone; 1.39 in the data set on biotinyl-Met-oxazolone; 1.16 with biotinyl-Leu-oxazolone.
As to “CCACUUCCAACAAUCGGUCUG [Fam1A.1 aminoacylation ribozyme variant]”, the self-aminoacylation in the data set with biotinyl-Phe-oxazolone is 1.13; in the data set on biotinyl-Ile-oxazolone, 0.991; with biotinyl-Val-oxazolone it was 1.11; in the data set with biotinyl-Trp-oxazolone, 1.6; in the data set on biotinyl-Met-oxazolone, 1.11; in the data set with biotinyl-Leu-oxazolone it was 1.15.
“CCACUUUUCAAGCAAUCGGUC [Fam1B.1 aminoacylation ribozyme variant]”: the self-aminoacylation with biotinyl-Phe-oxazolone came out at 1.58; in the data set on biotinyl-Ile-oxazolone it was 1.25; in the data set on biotinyl-Val-oxazolone, 1.32; in the data set on biotinyl-Trp-oxazolone, 1.06; in the data set with biotinyl-Met-oxazolone it was 1.1; with biotinyl-Leu-oxazolone, 1.1.
With “CCAGACUUCAACCAAUCGGUC [Fam1B.1 aminoacylation ribozyme variant]”, the self-aminoacylation turned out to be 51.2 with biotinyl-Phe-oxazolone; 1.39 with biotinyl-Ile-oxazolone; 1.72 in the data set with biotinyl-Val-oxazolone; 31.4 in the data set on biotinyl-Trp-oxazolone; 1.63 with biotinyl-Met-oxazolone; 2.1 in the data set on biotinyl-Leu-oxazolone.
With “CCAGACUUCAAGCAAUCAGUC [Fam1B.1 aminoacylation ribozyme variant]”, the self-aminoacylation with biotinyl-Phe-oxazolone worked out at 12.6; in the data set with biotinyl-Ile-oxazolone it was 1.04; in the data set on biotinyl-Val-oxazolone it was 0.837; in the data set with biotinyl-Trp-oxazolone it was 5.08; with biotinyl-Met-oxazolone it was 0.826; in the data set with biotinyl-Leu-oxazolone, 1.03.
For “CCAGACUUCAAGCAAUCGAUC [Fam1B.1 aminoacylation ribozyme variant]”, the self-aminoacylation with biotinyl-Phe-oxazolone came out at 1.51; in the data set on biotinyl-Ile-oxazolone, 0.714; in the data set on biotinyl-Val-oxazolone, 0.778; with biotinyl-Trp-oxazolone, 0.639; with biotinyl-Met-oxazolone it was 0.559; in the data set on biotinyl-Leu-oxazolone, 0.614.
As to “CCAGACUUCAAGCGAUCGGUC [Fam1B.1 aminoacylation ribozyme variant]”, the self-aminoacylation was found to be 1.63 in the data set on biotinyl-Phe-oxazolone; 1.36 in the data set with biotinyl-Ile-oxazolone; 1.8 in the data set on biotinyl-Val-oxazolone; 1.82 in the data set with biotinyl-Trp-oxazolone; 1.17 with biotinyl-Met-oxazolone; 1.83 with biotinyl-Leu-oxazolone.
As to “CCAGACUUCAGGCAAUCGGUC [Fam1B.1 aminoacylation ribozyme variant]”, the self-aminoacylation was 1.79 in the data set on biotinyl-Phe-oxazolone; 1.45 in the data set with biotinyl-Ile-oxazolone; 1.64 with biotinyl-Val-oxazolone; 1.83 with biotinyl-Trp-oxazolone; 1.36 in the data set with biotinyl-Met-oxazolone; 1.57 in the data set on biotinyl-Leu-oxazolone.
For the sequence “CCAGAUUUCAAGCAAUCGGUC [Fam1B.1 aminoacylation ribozyme variant]”, the self-aminoacylation in the data set on biotinyl-Phe-oxazolone worked out at 3.36; in the data set on biotinyl-Ile-oxazolone it was 1.5; in the data set on biotinyl-Val-oxazolone, 1.4; in the data set on biotinyl-Trp-oxazolone, 2.91; in the data set with biotinyl-Met-oxazolone, 1.48; in the data set on biotinyl-Leu-oxazolone it was 1.38.
Take “CCAUACAUCAAGCAAUCGGUC [Fam1B.1 aminoacylation ribozyme variant]”: the self-aminoacylation turned out to be 1.06 in the data set on biotinyl-Phe-oxazolone; 1.04 in the data set with biotinyl-Ile-oxazolone; 0.981 in the data set on biotinyl-Val-oxazolone; 0.687 with biotinyl-Trp-oxazolone; 0.792 with biotinyl-Met-oxazolone; 0.841 in the data set on biotinyl-Leu-oxazolone.
“CCAUACUUCAAGCAAUCCGUC [Fam1B.1 aminoacylation ribozyme variant]”: the self-aminoacylation in the data set on biotinyl-Phe-oxazolone was 0.96; with biotinyl-Ile-oxazolone, 1.15; in the data set with biotinyl-Val-oxazolone, 1.12; in the data set with biotinyl-Trp-oxazolone, 0.766; in the data set on biotinyl-Met-oxazolone, 0.829; in the data set with biotinyl-Leu-oxazolone, 0.949.
Turning to “CCAUACUUCAAGCGAUCGGUC [Fam1B.1 aminoacylation ribozyme variant]”, the self-aminoacylation turned out to be 1.17 with biotinyl-Phe-oxazolone; 1.15 in the data set on biotinyl-Ile-oxazolone; 1.25 in the data set with biotinyl-Val-oxazolone; 0.926 in the data set on biotinyl-Trp-oxazolone; 1.02 in the data set on biotinyl-Met-oxazolone; 0.976 in the data set with biotinyl-Leu-oxazolone.
Take “CCCCACUUCAAGCAAUCCGUC [Fam1B.1 aminoacylation ribozyme variant]”: the self-aminoacylation is 3.48 with biotinyl-Phe-oxazolone; 1.62 in the data set on biotinyl-Ile-oxazolone; 1.6 with biotinyl-Val-oxazolone; 2.64 in the data set on biotinyl-Trp-oxazolone; 1 in the data set with biotinyl-Met-oxazolone; 1.02 with biotinyl-Leu-oxazolone.
For the sequence “CCCCACUUCAAGCAAUCGGGC [Fam1B.1 aminoacylation ribozyme variant]”, the self-aminoacylation in the data set on biotinyl-Phe-oxazolone amounted to 4.2; with biotinyl-Ile-oxazolone, 2.37; in the data set on biotinyl-Val-oxazolone, 2.92; with biotinyl-Trp-oxazolone, 5.69; in the data set with biotinyl-Met-oxazolone, 3.15; in the data set on biotinyl-Leu-oxazolone, 2.43.
For “CCCCACUUCAAGCAAUCGGUC [Fam1B.1 aminoacylation ribozyme variant]”, the self-aminoacylation with biotinyl-Phe-oxazolone turned out to be 57.5; in the data set on biotinyl-Ile-oxazolone, 1.54; in the data set with biotinyl-Val-oxazolone it was 1.83; in the data set with biotinyl-Trp-oxazolone, 31.5; with biotinyl-Met-oxazolone, 1.48; with biotinyl-Leu-oxazolone, 1.97.
“CCCCUUCAAACAAUCGGUCUG [Fam1A.1 aminoacylation ribozyme variant]”: the self-aminoacylation in the data set with biotinyl-Phe-oxazolone was determined as 185; in the data set on biotinyl-Ile-oxazolone, 1.79; in the data set on biotinyl-Val-oxazolone, 2.44; with biotinyl-Trp-oxazolone it was 72.5; in the data set on biotinyl-Met-oxazolone it was 2.05; in the data set on biotinyl-Leu-oxazolone, 3.29.
Turning to “CCGCACUGCAAGCAAUCGGUC [Fam1B.1 aminoacylation ribozyme variant]”, the self-aminoacylation in the data set on biotinyl-Phe-oxazolone amounted to 1; in the data set with biotinyl-Ile-oxazolone, 1.52; in the data set on biotinyl-Val-oxazolone, 1.81; in the data set on biotinyl-Trp-oxazolone it was 1.42; with biotinyl-Met-oxazolone it was 1.21; in the data set on biotinyl-Leu-oxazolone, 1.17.
For the sequence “CCGCACUUCAAGCACUCGGUC [Fam1B.1 aminoacylation ribozyme variant]”, the self-aminoacylation in the data set with biotinyl-Phe-oxazolone was found to be 1.93; in the data set with biotinyl-Ile-oxazolone, 1.38; in the data set with biotinyl-Val-oxazolone it was 1.79; with biotinyl-Trp-oxazolone, 1.55; in the data set on biotinyl-Met-oxazolone it was 1.44; in the data set with biotinyl-Leu-oxazolone, 1.64.
Turning to “CCGCACUUCAAGCAUUCGGUC [Fam1B.1 aminoacylation ribozyme variant]”, the self-aminoacylation with biotinyl-Phe-oxazolone amounted to 1.88; in the data set with biotinyl-Ile-oxazolone, 2.17; in the data set with biotinyl-Val-oxazolone, 2.28; in the data set with biotinyl-Trp-oxazolone, 1.76; in the data set with biotinyl-Met-oxazolone, 1.85; in the data set with biotinyl-Leu-oxazolone it was 1.62.
For the sequence “CCGCACUUCAGGCAAUCGGUC [Fam1B.1 aminoacylation ribozyme variant]”, the self-aminoacylation was 6.33 in the data set with biotinyl-Phe-oxazolone; 1.76 in the data set with biotinyl-Ile-oxazolone; 2.87 with biotinyl-Val-oxazolone; 2.88 in the data set on biotinyl-Trp-oxazolone; 1.98 in the data set on biotinyl-Met-oxazolone; 2.33 in the data set with biotinyl-Leu-oxazolone.
For “CCGGACUUCAAGCAAUCGGUC [Fam1B.1 aminoacylation ribozyme variant]”, the self-aminoacylation with biotinyl-Phe-oxazolone turned out to be 39.3; in the data set on biotinyl-Ile-oxazolone, 1.5; in the data set with biotinyl-Val-oxazolone, 1.71; in the data set on biotinyl-Trp-oxazolone, 26.3; with biotinyl-Met-oxazolone, 1.31; in the data set on biotinyl-Leu-oxazolone, 2.03.
As to “CCUCAAUUCAAGCAAUCGGUC [Fam1B.1 aminoacylation ribozyme variant]”, the self-aminoacylation in the data set on biotinyl-Phe-oxazolone was determined as 6.19; in the data set on biotinyl-Ile-oxazolone, 1.07; with biotinyl-Val-oxazolone it was 0.943; in the data set on biotinyl-Trp-oxazolone, 3.57; with biotinyl-Met-oxazolone, 0.916; with biotinyl-Leu-oxazolone, 1.04.
